Data taken from article PMC12423496.

Target: T1, sHdrR-trunc (Hyphomicrobium denitrificans XT) (UniProt D8JT17)
T1 sequence: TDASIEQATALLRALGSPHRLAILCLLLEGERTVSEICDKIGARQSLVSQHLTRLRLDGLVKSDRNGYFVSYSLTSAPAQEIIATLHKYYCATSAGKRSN
Assay: EMSA
Conditions: 10 mM Tris-HCl, 50 mM KCl, 1 mM DTT, pH 8.0 (1x of 10x buffer), about 7% glycerol; 20 min RT then 30 min at 30 C with 17 nM DNA; 6% native PAGE, 0.25x TBE, 4 C

Row | Sequence | binding
1 | CGGCCCTCTGAGAAAAGACGCACACGTCGCGCCAAAAACATATGAACATTCGCATGATGGAATATAACAGCCCTGCCGATCGCACAAGGCTCGCTTTAAACGCGGACGCGTCTTCGCAGCGCACACGCATGCGCTGGACGTCCGATCATGTGAAAATTGGGCTGAAGACTCGCTCTA (double strand) [upstream of lipS1] | binds
2 | GGGTCACCAAATTCTGCAGGTCTCAATGCGAATGCGAGGCTGCTCCAGCTAGACGAAAAACAAGGAACGTTGCAATAGATAATTCACATATGATAATTTTCATATGTGTTATAGGATGAACGTTATCGCAGCTTCCGGGAGAGATGGCGTGAT (double strand) [soxA-soxY intergenic region] | binds
3 | TCGACAGCTTGCGGAAATCCGCAATCGAGATCGAAGCCATCGATCGTATTCGAATAGCACGTTCAGCTTCTGCGGAAGCGAACAACGCAACCGGCGCCAAGAGATAAATCTACATCGATCGTCGCGCCGGATGCGTTCACGTTGCCAAGGAATTCCTCACCGGCGGAGCCGTGGAATT (double strand) | no binding
4 | TGCCACCTCCCCGATATGCGTGGCTTTTGTTGTTTTGCCACTTCAGTTCTTGTGTAACTTCCTCTTTAGAACCAGTCAATATTACATTCGCATGTTTGAATATTCCATTTTTCTATATGTTCATCGAATTGGAAAAGTTATTCAAATATATCGCGATCGATTGATCGGCGAAGTC (double strand) [upstream of dsrE3C] | binds
